# How the values were obtained:
# Experiment in all cases: cell-based or functional assay
# [1] = biological target: HIV-1 envelope of pseudovirus WEAU_d15_410_787 (HIV-1)
# [2] = biological target: HIV-1 envelope of pseudovirus 6535.3 (HIV-1)
# [3] = biological target: HIV-1 Env of pseudovirus C3347.c11 (HIV-1)
# [4] = biological target: HIV-1 envelope of pseudovirus T250-4 (HIV-1)
# [5] = biological target: HIV-1 Env of pseudovirus THRO4156.18 (HIV-1)
# [6] = biological target: HIV-1 Env of pseudovirus Q451.e2 (HIV-1)
# [7] = biological target: HIV-1 Env of pseudovirus 263-8 (HIV-1)
# [8] = biological target: HIV-1 envelope of pseudovirus HIV-0013095-2.11 (HIV-1)
# [9] = biological target: HIV-1 Env of pseudovirus 6811.v7.c18 (HIV-1)
# [10] = biological target: HIV-1 Env of pseudovirus 3415.v1.c1 (HIV-1)
# [11] = biological target: HIV-1 Env of pseudovirus BJOX015000.11.5 (HIV-1)
# [12] = biological target: HIV-1 envelope of pseudovirus 7030102001E5(Rev-) (HIV-1)
# [13] = biological target: HIV-1 envelope of pseudovirus 6041.v3.c23 (HIV-1)
# [14] = biological target: HIV-1 envelope spike of pseudovirus BaL.26 (HIV-1)
# [15] = biological target: HIV-1 Env of pseudovirus BJOX025000.01.1 (HIV-1)
# [16] = biological target: HIV-1 Env of pseudovirus 62357_14_03_4589 (HIV-1)
# [17] = biological target: HIV-1 Env of pseudovirus T251-18 (HIV-1)
# [18] = biological target: HIV-1 Env of pseudovirus Q769.d22 (HIV-1)
# [19] = biological target: HIV-1 envelope of pseudovirus 89-F1_2_25 (HIV-1)
# [20] = biological target: HIV-1 Env of pseudovirus R2184.c04 (HIV-1)
# [21] = biological target: HIV-1 envelope of pseudovirus 6545.v4.c1 (HIV-1)
# [22] = biological target: HIV-1 Env of pseudovirus T255-34 (HIV-1)
# [23] = biological target: HIV-1 envelope of pseudovirus ZM249M.PL1 (HIV-1)
# [24] = biological target: HIV-1 envelope of pseudovirus 235-47 (HIV-1)
# [25] = biological target: HIV-1 Env of pseudovirus Ce1086_B2 (HIV-1)
# [26] = biological target: HIV-1 envelope of pseudovirus 9004SS_A3_4 (HIV-1)
# [27] = biological target: HIV-1 Env of pseudovirus 1394C9G1(Rev-) (HIV-1)
# [28] = biological target: Murine leukemia virus (MuLV) envelope on pseudovirus (Murine leukemia virus)
# [29] = biological target: HIV-1 Env of pseudovirus Ce704809221_1B3 (HIV-1)
# [30] = biological target: HIV-1 envelope of pseudovirus ZM135M.PL10a (HIV-1)
# [31] = biological target: HIV-1 Env of pseudovirus Ce0393_C3 (HIV-1)
# [32] = biological target: HIV-1 envelope spike of pseudovirus CAAN5342.A2 (HIV-1)
# [33] = biological target: HIV-1 envelope of pseudovirus CNE52 (HIV-1)
# [34] = biological target: HIV-1 Env of pseudovirus WITO4160.33 (HIV-1)
# [35] = biological target: HIV-1 envelope of pseudovirus CNE21 (HIV-1)
# [36] = biological target: HIV-1 Env of pseudovirus CNE19 (HIV-1)
# [37] = biological target: HIV-1 envelope of pseudovirus 6240_08_TA5_4622 (HIV-1)
# [38] = biological target: HIV-1 envelope of pseudovirus Q23.17 (HIV-1)
# [39] = biological target: HIV-1 envelope of pseudovirus SC422661.8 (HIV-1)
# [40] = biological target: HIV-1 Env of pseudovirus CNE21 (HIV-1)
# [41] = biological target: HIV-1 Env of pseudovirus Du422.1 (HIV-1)
# [42] = biological target: HIV-1 Env of pseudovirus WEAU_d15_410_787 (HIV-1)
# [43] = biological target: HIV-1 envelope of pseudovirus Ce1176_A3 (HIV-1)
# [44] = biological target: HIV-1 envelope of pseudovirus Ce703010054_2A2 (HIV-1)
# [45] = biological target: HIV-1 envelope spike of pseudovirus 6535.3 (HIV-1)
# [46] = biological target: HIV-1 Env of pseudovirus AC10.0.29 (HIV-1)
# [47] = biological target: HIV-1 envelope of pseudovirus 62357_14_03_4589 (HIV-1)
# [48] = biological target: HIV-1 Env of pseudovirus CNE52 (HIV-1)
# [49] = biological target: HIV-1 Env of pseudovirus X1193_c1 (HIV-1)
# [50] = biological target: HIV-1 Env of pseudovirus PVO.4 (HIV-1)
# Chain of 10-1074 (antibody) (VH): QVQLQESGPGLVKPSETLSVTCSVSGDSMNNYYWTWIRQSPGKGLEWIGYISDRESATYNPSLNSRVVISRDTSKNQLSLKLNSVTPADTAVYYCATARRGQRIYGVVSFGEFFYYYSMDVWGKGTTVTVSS
# Chain of 10-1074 (antibody) (V domain): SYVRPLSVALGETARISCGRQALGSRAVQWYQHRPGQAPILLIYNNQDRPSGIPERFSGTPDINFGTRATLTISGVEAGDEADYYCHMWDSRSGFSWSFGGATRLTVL
substance,measurement,setting,value
10-1074 (antibody),IC50 (TZM-bl neutralization),[1],0.104 µg/mL
same,IC50 (TZM-bl neutralization),[2],0.014 µg/mL
same,IC80 (TZM-bl neutralization),[3],> 50 µg/mL
same,IC50 (TZM-bl neutralization),[4],< 0.001 µg/mL
same,IC80 (TZM-bl neutralization),[5],> 50 µg/mL
same,IC80 (TZM-bl neutralization),[6],> 50 µg/mL
same,IC80 (TZM-bl neutralization),[7],6.53 µg/mL
same,IC50 (TZM-bl neutralization),[8],> 50 µg/mL
same,IC80 (TZM-bl neutralization),[9],0.01 µg/mL
same,IC80 (TZM-bl neutralization),[10],> 50 µg/mL
same,IC80 (TZM-bl neutralization),[11],> 50 µg/mL
same,IC50 (TZM-bl neutralization),[12],0.006 µg/mL
same,IC50 (TZM-bl neutralization),[13],> 50 µg/mL
same,IC50 (TZM-bl neutralization assay),[14],0.033 µg/mL
same,IC80 (TZM-bl neutralization assay),[14],0.124 µg/mL
same,IC80 (TZM-bl neutralization),[15],> 50 µg/mL
same,IC80 (TZM-bl neutralization),[16],> 50 µg/mL
same,IC80 (TZM-bl neutralization),[17],7.39 µg/mL
same,IC80 (TZM-bl neutralization),[18],> 50 µg/mL
same,IC50 (TZM-bl neutralization),[19],> 50 µg/mL
same,IC80 (TZM-bl neutralization),[20],> 50 µg/mL
same,IC50 (TZM-bl neutralization),[21],> 50 µg/mL
same,IC80 (TZM-bl neutralization),[22],> 50 µg/mL
same,IC50 (TZM-bl neutralization),[23],> 50 µg/mL
same,IC50 (TZM-bl neutralization),[24],0.05 µg/mL
same,IC80 (TZM-bl neutralization),[25],> 50 µg/mL
same,IC50 (TZM-bl neutralization),[26],0.011 µg/mL
same,IC80 (TZM-bl neutralization),[27],0.191 µg/mL
same,IC50 (TZM-bl neutralization assay),[28],> 40 µg/mL
same,IC80 (TZM-bl neutralization assay),[28],> 40 µg/mL
same,IC80 (TZM-bl neutralization),[29],0.696 µg/mL
same,IC50 (TZM-bl neutralization),[30],0.069 µg/mL
same,IC80 (TZM-bl neutralization),[31],> 50 µg/mL
same,IC50 (TZM-bl neutralization assay),[32],0.007 µg/mL
same,IC80 (TZM-bl neutralization assay),[32],0.044 µg/mL
same,IC50 (TZM-bl neutralization),[33],1.23 µg/mL
same,IC80 (TZM-bl neutralization),[34],2.11 µg/mL
same,IC50 (TZM-bl neutralization),[35],0.087 µg/mL
same,IC80 (TZM-bl neutralization),[36],> 50 µg/mL
same,IC50 (TZM-bl neutralization),[37],0.068 µg/mL
same,IC50 (TZM-bl neutralization),[38],0.006 µg/mL
same,IC50 (TZM-bl neutralization),[39],0.091 µg/mL
same,IC80 (TZM-bl neutralization),[40],0.181 µg/mL
same,IC80 (TZM-bl neutralization),[41],0.166 µg/mL
same,IC80 (TZM-bl neutralization),[42],0.375 µg/mL
same,IC50 (TZM-bl neutralization),[43],0.018 µg/mL
same,IC50 (TZM-bl neutralization),[44],> 50 µg/mL
same,IC50 (TZM-bl neutralization assay),[45],0.007 µg/mL
same,IC80 (TZM-bl neutralization assay),[45],0.044 µg/mL
same,IC80 (TZM-bl neutralization),[46],0.11 µg/mL
same,IC50 (TZM-bl neutralization),[47],> 50 µg/mL
same,IC80 (TZM-bl neutralization),[48],13.1 µg/mL
same,IC80 (TZM-bl neutralization),[49],0.475 µg/mL
same,IC80 (TZM-bl neutralization),[50],0.36 µg/mL
PGT121 (antibody),IC50 (TZM-bl neutralization),[1],0.083 µg/mL
same,IC50 (TZM-bl neutralization),[2],0.008 µg/mL
same,IC80 (TZM-bl neutralization),[3],> 50 µg/mL
same,IC50 (TZM-bl neutralization),[4],0.001 µg/mL
same,IC80 (TZM-bl neutralization),[5],> 50 µg/mL
same,IC80 (TZM-bl neutralization),[6],> 50 µg/mL
same,IC80 (TZM-bl neutralization),[7],24.6 µg/mL
same,IC50 (TZM-bl neutralization),[8],> 50 µg/mL
same,IC80 (TZM-bl neutralization),[9],0.017 µg/mL
same,IC80 (TZM-bl neutralization),[10],> 50 µg/mL
same,IC80 (TZM-bl neutralization),[11],> 50 µg/mL
same,IC50 (TZM-bl neutralization),[12],0.01 µg/mL
same,IC50 (TZM-bl neutralization),[13],> 50 µg/mL
same,IC50 (TZM-bl neutralization assay),[14],0.021 µg/mL
same,IC80 (TZM-bl neutralization assay),[14],0.081 µg/mL
same,IC80 (TZM-bl neutralization),[15],> 50 µg/mL
same,IC80 (TZM-bl neutralization),[16],45.6 µg/mL
same,IC80 (TZM-bl neutralization),[17],> 50 µg/mL
same,IC80 (TZM-bl neutralization),[18],> 50 µg/mL
same,IC50 (TZM-bl neutralization),[19],> 50 µg/mL
same,IC80 (TZM-bl neutralization),[20],> 50 µg/mL
same,IC50 (TZM-bl neutralization),[21],> 50 µg/mL
same,IC80 (TZM-bl neutralization),[22],> 50 µg/mL
same,IC50 (TZM-bl neutralization),[23],> 50 µg/mL
same,IC50 (TZM-bl neutralization),[24],0.332 µg/mL
same,IC80 (TZM-bl neutralization),[25],0.006 µg/mL
same,IC50 (TZM-bl neutralization),[26],0.008 µg/mL
same,IC80 (TZM-bl neutralization),[27],3.37 µg/mL
same,IC50 (TZM-bl neutralization assay),[28],> 40 µg/mL
same,IC80 (TZM-bl neutralization assay),[28],> 40 µg/mL
same,IC80 (TZM-bl neutralization),[29],0.492 µg/mL
same,IC50 (TZM-bl neutralization),[30],0.576 µg/mL
same,IC80 (TZM-bl neutralization),[31],> 50 µg/mL
same,IC50 (TZM-bl neutralization assay),[32],0.013 µg/mL
same,IC80 (TZM-bl neutralization assay),[32],0.056 µg/mL
same,IC50 (TZM-bl neutralization),[33],3.74 µg/mL
same,IC80 (TZM-bl neutralization),[34],6.01 µg/mL
same,IC50 (TZM-bl neutralization),[35],0.02 µg/mL
same,IC80 (TZM-bl neutralization),[36],0.189 µg/mL
same,IC50 (TZM-bl neutralization),[37],0.128 µg/mL
same,IC50 (TZM-bl neutralization),[38],0.01 µg/mL
same,IC50 (TZM-bl neutralization),[39],0.101 µg/mL
same,IC80 (TZM-bl neutralization),[40],0.061 µg/mL
same,IC80 (TZM-bl neutralization),[41],0.131 µg/mL
same,IC80 (TZM-bl neutralization),[42],0.295 µg/mL
same,IC50 (TZM-bl neutralization),[43],0.017 µg/mL
same,IC50 (TZM-bl neutralization),[44],> 50 µg/mL
same,IC50 (TZM-bl neutralization assay),[45],0.007 µg/mL
same,IC80 (TZM-bl neutralization assay),[45],0.041 µg/mL
same,IC80 (TZM-bl neutralization),[46],0.169 µg/mL
same,IC50 (TZM-bl neutralization),[47],1.04 µg/mL
same,IC80 (TZM-bl neutralization),[48],32.9 µg/mL
same,IC80 (TZM-bl neutralization),[49],0.202 µg/mL
same,IC80 (TZM-bl neutralization),[50],0.945 µg/mL

# — patent US12338277
